Measured values: the DeepSol protein solubility set

assay: soluble on expression in E. coli; label from the status in PepcDB or PDB records

Soluble on expression in E. coli, not soluble:
MGRQGSLALLLSIILIGETIANEYDGLSSHQSHQSTVTSAPIHVSEQQTSRNRPYNQPQLQQKPSVLTQSYQVLPESRNYYQYPQYLPTHTGYSNIQTVGQPYQMYGSAPGSNVVSGGNSESYGYNQQAPVPTVAPAPVHFSERQRSYSAAPTPPSPFSETRERENNNVRAPGHHAPAQQGHRSPSPPPSPFMINPKPVLSYGAANPFLANLPPAQGVYGAPIDSSHRGYDGFSLSAPAPPSGSSASVDDTWEALEASLDANTRRRHRIF, MGSDKIHHHHHHAAQARLDKARAMYENNEFFGAKNEIDSIRALYPKEVKVLKQGLTLMRQVEVKEAERNIAFCDSLLPIKLEEVEGLKKGFAFEKDSVYEEIGNYIWKQQTIERNVQRCYVRCGVNEEGEMYLASVYYGGRPIEHTGIKLSLKDGQFAETASIPYDGGLNYRFKDMGSTTEVVTYKGEHCVDAVKFIYDNEKERIKVEYTGGKPYIIYMADADKKAIVNTFNLATVLSDIKSMNTLKEKSEKKIAYLKNKLEE, MGSDKIHHHHHHAAVGEKLGWPQQKISKIESGEQKRIPAAELDALLEVYGVTDPQIRESLHECARLAKERGWWTRYKDAFPSGLPDFESEASVIRSYECQVIPGILQTPDYADAIFRAYKLREDKEIDRLVKARMERQNILNRVDPPHFMTIIDEAALHRLVGSVEVMRTQLRHLTHMASRHNIDIYVLPFKAGAHAATTGSFMIMDFPDPMDNSIVYVDTPTSILYIEDEEEVREFNVMFSRTQSAALSPTLSMDLVKKVIKSLEE, MGSDKIHHHHHHACNTSPREPKAMEANDGSVTTVESNGNKLTVCDLSAVKDTIEVPLSEFVEDCRIVRFETSEEAYFKAWFINATDKHIGIRQGNQDVFKLFDRDGKFLYNVGSVGSGPGEYDTTLYDECIDEKNGHIFFTPFVGKRIMMYDINGQWIKDIPLPMQINKAKIWVNEDGSLSVVHMPFEEGEPLAFRVDTEGNILNQIPATAATKVMNFDGEVFSYRNCGDFDFFHTGIDTLFTYDPAGNKLLPKFTMTFPNMNEKPIHLYYRLPHHFIVTYWGNKGEGGGDVLVDTEKNASSYFRLVNDFYGNLPIPAPGHSFYRGYFIQSLEPGQLIEKIEKQIASGKCSGQDEQKLKELAATLTENDNNVLFIGKVKK, MGSDKIHHHHHHAEPAPSQEDMRLYTIASAPSAGRIEQDIKTLVGFGTRHTLSQTDSNAQGIGAARRWIETEFQRISAKCNGCLEVVTLSETVSGKRIPNPTEVVNVIAIQRGLTDPNRAVVMTGDIDSRVTDVMNSSAISPGANDNASGVAGTLEAARVLSQYQFAGTIIYAALSGEEQGLYGGDILINHAKAQGLQIQAVLNNDMIGNIAGINGVIDNHSVRVFSEGVRIAETSEEAKERYFSGGENDSASRNLARKIKSLADQYMTNLDVQLINRLDRFGRGGHHLPFNKAGFAAVRVMETNEHYHRQHQDIRTENGIAYGDVIEGVDFDFNAKLTALNAISLAAMAWAPAPPKEVKISGEVSADTVLKWTVNNKDKALVGYRVYWRNTTASEWTHSRYVGKLGQFTLKNLVIDNYLFGVASVSADGNTSPVVFPGAIGAF, MGSDKIHHHHHHAEQKEEGISVLRYDKLLSEYVRSNSFSAMQKLTMDYRQPTKILIEDVLSIGTVKDDTISQRLQKFYSDSTLLRLLSDVEAKYPNLDEVEKGLTKGFRKLKKEVPDTKIPFIYSQISAFNESIILVDTLLGISLDKYMGEDYPLYKRFYYDYQCTSMRPERIVPDCFAFYLLSRYEMNYHEGTCLVDLMMHSGKINYVVQHLLGYDDIGQAMGYSDQENEWCRKNEKDIWEYICANDHLHARDPMVIRYYMKPAPTVDMLGGQAPALIGSWVGARIIASYMKKHKDLKIKDLLELTDYQSMFEESGYLKL, MGSDKIHHHHHHAESDSFEDNSSNFESMISLYGIQSATVDSKVGDVPSVTAEEMASVLEALRQNGNTIRNCESETLEGYYEGGDRKEVKMIAEYQARTRSGAFVEQFALCVSVNFNIDNNGGVFYIGTTYSSSTDLFNWQGYGASLSTTAEGNSVFSSTSYLYFRVSDQGNCLVKVPVSFKGSYNFKDNKGTYSFTLSKAAN, MGSDKIHHHHHHAGELRERVYLQTDKQFYLSGELVWMKFIATDLDQRLSDVSKVGYVELLDSASAVVQARLVLEKGVGDGCLQLPSTLPTGNYRLVAYTRYMRNEGEEVFFEKPLAVVNTFVTNETLLTDTLLPAYSFTRREDPVSVSPDRMTYDTRSGGEIRINGLPPDLQTLSVSIAGIDLYKPSARSGIVDWKQSMPTTGSSPADRKFLAEYEGPILTGKVIDLSTGEPSSKEAVRPLLGFSGGEIRLFGGQLGPAGEVTFFTRHISGTHEIVTVALSPSSSRYRVDIESPYATHPEKELPALRLNPAWQDELVKRSVGLQVLHAYRSDSLVREKAEKPWFQWQPDWSYLLDEYTRFTTMEEVVIEFIPGLRFRKMDGVRRLAVLTEERIGYTIGNSLVLLDGIPITDHEIIFKYDPLKIRKIDVYKGKYVFGGQIFDGIASFSSYEHNYPGLVVDNSTQFFDYEGTQAQRIFYMPAYRTEAEKRSPVPDFRHTLLWRPDIRTNGESSISIPFTTSDLTGDFTITIEGLTQTGEALYATEQFQVK, MGSDKIHHHHHHALPDPVKPKAPKAVNPFHLGMAGYTFVNFDLDTTLKTLERLDIHYLCIKDFHLPLNSTDEQIRAFHDKCAAHKVTGYAVGPIYMKSEEEIDRAFDYAKRVGVKLIVGVPNYELLPYVDKKVKEYDFHYAIHLHGPDIKTYPDATDVWVHTKDLDPRIGMCLDVGHDLRNGCDPVADLKKYHTRVFDMHIKDVTDSSKAGVGIEIGRGKIDFPALIRMMREVNYTGMCSLEYEKDMKDPFLGIAESIGYFKAVSDLT, MGSDKIHHHHHHALSSDYFTTTPQVLEAVGGKVPVTINGKFPEKYFKKNAVVEVTPVLKWEGGQVKGQPAVFQGEKVEGNDQTISYKMGGNYTMKTTFDYVPEMAKSELYLEFNAKVGKKTIAIPAVKIADGVISTSELINNTLSSANPALGDDAFQRIIKEAHNANIMFLIQQANIRSSELKTAKEFNKEVANVNDAENKKISNIEISAYASPDGGVKLNTGLAENREGNTTKLINKDLKKAKIEVPVDAKYTAQDWEGFQELVSKSNIQDKELILRVLSMYQDPEQRETEIKNISSVYKTLADEILPQLRRSRLTLNYEIIGKSDEEIANLAATDPKQLNVEEILYAATLTNDPAKKADIYTKASQQFPNDYRAFNNLGKLAYQAGDLDKAQSYVKKAESIKSAPEVNMNLGLIALAKGDKAAAESYLGKAAGAKELNETLGNLYVAQGQYERAVNAFGDTKTNSAALAQILAKDYNKAKNTLAGIATPDAYTDYLMAVLGARTNNTSMLTSSLKSAVAKNPALAKKAATDLEFAKYYTNADFMSIVK, MGSDKIHHHHHHANVEVQKENFVFSIKGTDTLSLDKYELPSISPASKKPVMIFAFGGGFKGGDKADKGYIPYFEFLARNGFVVVSTDYRTTLKNLDPSKVSSPMDFIAALQHAIDTAVEDFYDATGFVINQSSDWNIDVEQIVASGSSAGAITVLQAEYDLCNGHELAKRLPAGFNYAGVISYAGAVSGVLPPHWEKMPCPIMLFHGDADKTVPFEQAAMENLGGLWGSSAVAKSLENLQASYYFYKVENAGHEISGLPMSRNQYDIMSFLSRQVLGDENLAITTDERVPGDTIVRKDFTVQDYILDNLR, MGSDKIHHHHHHAPKGAEARMIATVDAEQARTLRFLEVMVNQNSGSRNLEGVRRLRDIVVPEFTALGFTSRWIPMERTGRAGHLVLTHKGRQGAKKLLLIGHLDTVFEPDSPFQTYVLNGEKATGPGVGDDKGGIAVILAAVRAMNAAGTLKGASIEVFLTGDEEEAGSPTEVARADLVAAARAADVALDFEGLSRENGRDMGSIARRSSQSWSLTVEAKSGHSSGVWGANAGDGAIYAAAKIVNAFRTELPEPWLTLNVGLIAGGAEAEVAEDNAHVSAQGKTNIIPGEVIARGDLRTLSPEQNRAAMRKMEEIVGRPYPGVTSARIAFSEGYPPMAPTEGNKALLARLNQVNATLGLPEMQPLDPMKRGAGDISFVAEYIDGLVGLGPHSTGDHAPGETVDVPSIWTQAKRAALLMTRLSAEKSAR
